Test [1] concerns the target T1, hpIgR domain-1 with teleost fish CDR3 (hD1 tCDR3) (human, UniProt P01833 19-127, limits assumed).
T1 construct: CDR-swapped hpIgR domain-1 mutant, HIS-tagged, made in HEK293 cells; not shown: HIS tag
Kind of test: BLI, relative to full-length hpIgR ECD. A general note: Biolayer interferometry detects binding as a change in optical thickness at a sensor tip.

Test [2] addresses T2, human pIgR extracellular domain (ECD) (human, UniProt P01833 19-638).
T2 construct: also called hpIgR ECD
Briefly: BLI, relative to full-length hpIgR ECD.
Method: (§1) Bio-layer Interferometry was performed as follows. […] Data were collected with Octet Data Acquisition version 7.1.0.87 (ForteBio) and analyzed using Octet Data Analysis version 7.1 (ForteBio). To measure binding kinetics between VHH-mono-Fc molecules and HIS-tagged pIgR proteins, VHH-mono-Fc was immobilized on amine-reactive generation-2 (ARG2) biosensors according to manufacturer's instructions and increasing concentrations of pIgR proteins were exposed to sensor-immobilized VHH. In some cases, HIS-tagged pIgR proteins were immobilized on anti-HIS biosensors and exposed to increasing concentrations of VHH-mono-Fc molecules. Association and dissociation rates were measured by the shift in wavelength (nm). […] All reactions were performed at 25° C. in PBS.
(§2) (Full-length hpIgR ECD was purchased from R&D Systems.) The five constructs (D1-D2, D1, D1_tCDR1, D1_tCDR2, D1_tCDR3) were expressed and purified from HEK293 cells using immobilized metal ion affinity chromatography. Three hpIgR domain-1 CDR mutants (D1_tCDR1, D1_tCDR2, D1_tCDR3) contain respective teleost fish CDR on a hpIgR domain-1 framework. His-tagged pIgR constructs were immobilized on anti-HIS biosensors and binding of VHH-mono-Fc molecules to pIgR constructs were measured by bio-layer interferometry.

Test [3] has as its target T3, human pIgR extracellular domain 1 (D1) (human, UniProt P01833 19-127).
T3 construct: HIS-tagged construct made in HEK293 cells; also called hpIgR domain-1
Kind of test: BLI, relative to full-length hpIgR ECD.
Target sequence in this assay (P01833 other isoform, or with tags, fused parts or gaps limits assumed): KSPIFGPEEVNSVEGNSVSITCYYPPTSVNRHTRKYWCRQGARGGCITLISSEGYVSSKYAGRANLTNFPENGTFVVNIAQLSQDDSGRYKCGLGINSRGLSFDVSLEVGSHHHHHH
Method: as §1, §2

Test [4] has as its target T4, human pIgR extracellular domain 1-domain 2 (D1-D2) (human, UniProt P01833 19-240).
T4 construct: HIS-tagged construct made in HEK293 cells
Kind of test: BLI, relative to full-length hpIgR ECD.
Method: as §1, §2

The target in test [5] is T5, hpIgR domain-1 with teleost fish CDR1 (hD1 tCDR1) (human, UniProt P01833 19-127, limits assumed).
T5 construct: CDR-swapped hpIgR domain-1 mutant, HIS-tagged, made in HEK293 cells; not shown: HIS tag
T5 sequence (P01833 other isoform, or with tags, fused parts or gaps limits assumed): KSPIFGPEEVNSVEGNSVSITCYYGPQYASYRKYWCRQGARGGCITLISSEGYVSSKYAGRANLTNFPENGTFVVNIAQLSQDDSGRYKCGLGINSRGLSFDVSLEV
Briefly: BLI, relative to full-length hpIgR ECD.

For test [6], the target named is T6, mouse pIgR extracellular domain (ECD) (mouse, UniProt O70570 19-645).
T6 construct: The entry ends with a HHHHHH tag; also called mpIgR; mpIgR ectodomain
T6 sequence: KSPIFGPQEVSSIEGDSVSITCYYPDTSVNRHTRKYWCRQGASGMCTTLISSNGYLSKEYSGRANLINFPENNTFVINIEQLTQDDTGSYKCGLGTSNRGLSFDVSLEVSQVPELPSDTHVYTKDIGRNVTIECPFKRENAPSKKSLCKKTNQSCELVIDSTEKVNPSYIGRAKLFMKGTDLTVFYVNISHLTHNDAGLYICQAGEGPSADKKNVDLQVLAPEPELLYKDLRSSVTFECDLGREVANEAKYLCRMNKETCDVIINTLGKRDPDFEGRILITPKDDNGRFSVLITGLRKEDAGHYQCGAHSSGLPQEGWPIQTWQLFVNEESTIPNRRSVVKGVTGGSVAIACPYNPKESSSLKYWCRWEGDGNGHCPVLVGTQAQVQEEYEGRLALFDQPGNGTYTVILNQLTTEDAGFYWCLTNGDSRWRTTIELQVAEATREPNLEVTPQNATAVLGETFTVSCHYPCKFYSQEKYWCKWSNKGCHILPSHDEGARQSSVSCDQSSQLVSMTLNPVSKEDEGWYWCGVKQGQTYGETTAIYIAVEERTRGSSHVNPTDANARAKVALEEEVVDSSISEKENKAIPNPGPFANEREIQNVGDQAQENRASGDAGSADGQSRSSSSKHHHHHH
Briefly: BLI, screen of the VHH clones generated from hpIgR antigen.

Test [7] concerns the target T3, human pIgR extracellular domain 1 (D1). Kind of test: ECL (MSD), Log ECLU against Log [VHH] nM, anti-Fc detection (first EC50 column).
The target of test [8] is T2, human pIgR extracellular domain (ECD). Briefly: BLI; summary table, repeats Table 1.
The target is the same in test [9]. Kind of test: BLI, HIS-tagged pIgR construct on anti-HIS biosensors; HIS-tagged hpIgR_ECD on anti-HIS biosensors, Table 3.
Method: as §1, §2
The target is the same in test [10]. Kind of test: ECL (MSD), anti-VHH detection against anti-Fc detection.
Method: To check whether VHH recognizes a buried epitope on pIgR, EC₅₀ values were measured for VHH-mono-Fc molecules binding to hpIgR-ECD protein by electrochemiluminescence using two different detection antibodies, an anti-Fc antibody and an anti-VHH antibody. pIgR ECD (10 μg/ml in PBS) was coated on high-bind MSD plates for 2 hours at RT with 1000 rpm, incubated with blocking buffer for 1 hour at RT, incubated with VHH-mono-Fc molecules (increasing concentrations in PBS) for 2 hours at RT with 1000 rpm, washed 3× with PBT, incubated with ruthenylated secondary antibody (2 μg/ml in PBS) for 1 hour at RT with 1000 rpm, washed 3× with PBT and read plates in 40 ul reading buffer using the MSD imager. EC50 was calculated by fitting log VHH concentration versus log ECLU in Prism (Graphpad). The increase in EC₅₀ (>50-fold) due to anti-VHH detection was used as a measure to determine whether VHH recognized buried epitope on pIgR.
Test [11] has as its target T7, human pIgR, full-length, on cells (human, UniProt P01833 19-764).
T7 construct: whole, on cells; Used for the flow cytometry EC50 values (MDCK-hpIgR) and for the transcytosis read-outs; also called hpIgR; cell-surface hpIgR
Kind of test: flow cytometry on MDCK-hpIgR cells; summary table, repeats Table 1. On the technique in general: In flow cytometry, cells or beads pass a laser one at a time.

In test [12] the target is T7, human pIgR, full-length, on cells. Kind of test: cell-based or functional assay.
Test [13] addresses T2, human pIgR extracellular domain (ECD). Kind of test: BLI; summary table, repeats Table 1; summary Table 4.
The target is the same in test [14]. Briefly: BLI, screen of the VHH clones generated from mpIgR antigen.
The target of test [15] is T6, mouse pIgR extracellular domain (ECD). Described as above.
The target in test [16] is T2, human pIgR extracellular domain (ECD). Kind of test: BLI, HIS-tagged pIgR construct on anti-HIS biosensors.
Method: as §1, §2
The target of test [17] is T8, human pIgR extracellular domain 4-domain 5 (D4-D5) (human, UniProt P01833 350-565).
T8 construct: HIS-tagged construct made in HEK293 cells; also called hpIgR domains 4-5
T8 chain: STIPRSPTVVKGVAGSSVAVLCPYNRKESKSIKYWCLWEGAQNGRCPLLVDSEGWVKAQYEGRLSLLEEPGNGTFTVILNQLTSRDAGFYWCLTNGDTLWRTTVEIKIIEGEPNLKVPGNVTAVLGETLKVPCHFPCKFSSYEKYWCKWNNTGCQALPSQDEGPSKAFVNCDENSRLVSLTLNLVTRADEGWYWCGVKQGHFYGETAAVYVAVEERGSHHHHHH
Kind of test: ECL (MSD) heat map, HIS-tagged construct captured via anti-HIS, anti-human-Fc detection.

Two molecules from patent publication US20220324970A1 (Janssen / Centocor, published 2022) can be followed below.

T7 sequence (P01833 19-764): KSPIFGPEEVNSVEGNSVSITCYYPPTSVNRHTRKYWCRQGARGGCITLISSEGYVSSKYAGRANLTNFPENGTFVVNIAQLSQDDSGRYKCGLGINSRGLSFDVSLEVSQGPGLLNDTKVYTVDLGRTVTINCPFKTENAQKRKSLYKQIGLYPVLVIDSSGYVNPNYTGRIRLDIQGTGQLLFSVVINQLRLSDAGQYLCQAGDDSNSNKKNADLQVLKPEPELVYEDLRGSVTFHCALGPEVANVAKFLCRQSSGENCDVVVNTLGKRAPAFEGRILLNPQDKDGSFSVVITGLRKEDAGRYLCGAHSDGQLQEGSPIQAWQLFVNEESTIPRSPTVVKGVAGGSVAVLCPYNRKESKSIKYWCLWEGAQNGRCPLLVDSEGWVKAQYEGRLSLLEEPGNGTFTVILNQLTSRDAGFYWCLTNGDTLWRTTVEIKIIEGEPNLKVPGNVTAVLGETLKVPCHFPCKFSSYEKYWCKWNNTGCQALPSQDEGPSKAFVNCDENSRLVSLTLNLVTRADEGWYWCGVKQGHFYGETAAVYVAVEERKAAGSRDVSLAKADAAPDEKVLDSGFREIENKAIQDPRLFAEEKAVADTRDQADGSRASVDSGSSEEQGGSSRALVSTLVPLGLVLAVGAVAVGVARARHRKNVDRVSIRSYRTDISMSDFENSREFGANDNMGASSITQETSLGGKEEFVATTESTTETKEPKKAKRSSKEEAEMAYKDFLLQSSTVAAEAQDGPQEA
T2 sequence (P01833 other isoform, or with tags, fused parts or gaps): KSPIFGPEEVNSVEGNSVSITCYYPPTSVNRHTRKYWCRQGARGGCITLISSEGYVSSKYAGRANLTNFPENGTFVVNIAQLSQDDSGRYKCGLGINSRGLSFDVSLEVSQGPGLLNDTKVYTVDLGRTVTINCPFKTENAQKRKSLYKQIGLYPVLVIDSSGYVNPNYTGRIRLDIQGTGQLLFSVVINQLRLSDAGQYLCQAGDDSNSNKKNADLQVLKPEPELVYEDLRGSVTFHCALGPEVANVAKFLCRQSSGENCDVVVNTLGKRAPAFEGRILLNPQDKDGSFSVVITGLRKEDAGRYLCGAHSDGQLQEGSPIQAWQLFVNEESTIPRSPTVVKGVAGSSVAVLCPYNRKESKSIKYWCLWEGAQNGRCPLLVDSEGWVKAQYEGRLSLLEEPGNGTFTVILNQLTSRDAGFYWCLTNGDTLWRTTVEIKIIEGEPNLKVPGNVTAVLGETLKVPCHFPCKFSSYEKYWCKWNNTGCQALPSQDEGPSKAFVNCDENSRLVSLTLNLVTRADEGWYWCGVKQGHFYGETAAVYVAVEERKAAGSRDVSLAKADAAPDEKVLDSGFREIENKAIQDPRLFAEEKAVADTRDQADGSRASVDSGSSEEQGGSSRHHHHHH
T1 sequence (P01833 other isoform, or with tags, fused parts or gaps limits assumed): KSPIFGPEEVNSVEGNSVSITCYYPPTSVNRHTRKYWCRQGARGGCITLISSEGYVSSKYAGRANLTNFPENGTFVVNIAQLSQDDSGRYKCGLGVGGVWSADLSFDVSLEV
T4 sequence (P01833 other isoform, or with tags, fused parts or gaps limits assumed): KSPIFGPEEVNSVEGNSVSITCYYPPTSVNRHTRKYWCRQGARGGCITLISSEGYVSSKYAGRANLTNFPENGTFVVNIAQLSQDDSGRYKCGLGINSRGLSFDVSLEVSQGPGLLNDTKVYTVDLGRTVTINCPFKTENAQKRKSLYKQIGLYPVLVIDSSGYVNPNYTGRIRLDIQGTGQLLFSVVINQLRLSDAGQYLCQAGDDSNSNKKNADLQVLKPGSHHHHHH

B1: VHH3-linker-mono-Fc protein (Fc fusion)
chain: QLQLVESGGGLVQPGGSLRLSCAASGSIFSINVMGWYRQAPGKQRELVARINGGGITHYAESVKGRFTISRDNAKNTVYLQMNSLKPEDTAAYYCKADVFGSSGYVETYWGQGTQVTVSSEPKTPKPQPQPQLQPQPNPTTESKSPKSPAPELLGGPSVFLFPPKPKDTLMISRTPEVTCVVVDVSHEDPEVKFNWYVDGVEVHNAKTKPREEQYNSTYRVVSVLTVLHQDWLNGKEYKCKVSNKALPAPIEKTISKAKGQPREPQVYTKPPSREEMTKNQVSLSCLVKGFYPSDIAVEWESNGQPENNYKTTVPVLDSDGSFRLASYLTVDKSRWQQGNVFSCSVMHEALHNHYTQKSLSLSPGK
notes: made in CHO cells; also called VHH3-mono-Fc; hpIgR_021
Regarding B1, the “Fold change in KD” value came out at 0.8 fold in test [1]; 1 fold in [2]; 0.8 fold in test [3]; 1.3 fold in [4]; 7.7 fold in [5]. The figures for the Kd in test [6], in test [8] and in [9] were 40 nM, 5 nM and 10 nM, respectively. In addition, the EC50 in test [7] was found to be 3.1 nM; in test [11], 6.4 nM. For the same molecule, the “Fold change in EC50” value in test [10] worked out at 54 fold.

B2: VHH2-linker-mono-Fc protein (Fc fusion)
chain: EVQVVESGGGLVQAGGSLKLACAAPGLTFSSYRMGWFRQAPGQEREFVAAIDWNGRGTYYRYYADSVKGRSTISRDNAKNTVYLQMNSLKPEDTAVYYCAATTVLTDPRVLNEYATWGQGTQVTVSSEPKTPKPQPQPQLQPQPNPTTESKSPKSPAPELLGGPSVFLFPPKPKDTLMISRTPEVTCVVVDVSHEDPEVKFNWYVDGVEVHNAKTKPREEQYNSTYRVVSVLTVLHQDWLNGKEYKCKVSNKALPAPIEKTISKAKGQPREPQVYTKPPSREEMTKNQVSLSCLVKGFYPSDIAVEWESNGQPENNYKTTVPVLDSDGSFRLASYLTVDKSRWQQGNVFSCSVMHEALHNHYTQKSLSLSPGK
notes: also called VHH2-mono-Fc; mpIgR_338
Regarding B2, the “increase in their apical concentration relative to control VHH (MDCK-hpIgR monolayers)” value in test [12] is greater than 10 fold. Further, the “Fold change in KD” value in test [1] was determined as 0.7 fold; in test [2] it was 1 fold; in [3], 0.7 fold; in [4], 1 fold; in test [5] it was 1 fold. Besides, the EC50 in test [7] is 6.8 nM; in [11], 6.3 nM. Further, the “Fold change in EC50” value in [10] came to 1 fold. The Kd worked out at 21 nM in test [13], 22 nM in test [14], 1 nM in test [15] and 22 nM in test [16]. Further, the binding result in [17] is listed as “no binding (tested: 100 ug/ml (single concentration))”.

What is called Kd is the equilibrium constant for the complex coming apart. Read a high Kd as lower affinity. As a reminder, the EC50 is the concentration giving half of the maximal effect. High values mean a need for much substance, low ones an effect from little substance.
